{"source": "patent US20260258139A1", "about": "(BRIGHAM AND WOMEN S HOSPITAL, published 2026)", "binders": {"B1": {"name": "10A3D6hum2.2 (antibody, human IgG1, V domains shown)", "VH": "QVQLVQSGAEVKKPGASVKVSCKASGYSFTGYTMNWVRQAPGQNLEWIGLINPNTGGTYYNQKFKDRVTLTVDTSISTAYMELSRLRSDDTAVYYCARLGDNYRGYFDSWGQGTTVTVSS", "VL": "DIQLTQSPSFLSASVGDRVTITCKASQDVGTAVVWYQQKPGKAPKLLIDWASIRHTGVPSRFSGSGSGTEFTLTISSLQPEDFADYFCQQYSTYLYTFGGGTKLEIK", "notes": "tested as human IgG1-kappa produced in CHO cells"}, "B2": {"name": "antibody 12.0 (antibody, human IgG1, kappa, V domains shown)", "VH": "B1 VH with S28T, N44G, I48M, N54S, L70M, V72R, S109Y", "VL": "DIQLTQSPSFLSASVGDRVTITCRASQDVGTAVVWYQQKPGKAPKLLIDWASIRHTGVPSRFSGSGSGTEFTLTISSLQPEDFATYYCQQYSTYLYTFGGGTKLEIKR", "notes": "Human IgG1-kappa produced in CHO cells"}, "B3": {"name": "10A3D6hum1.2 (antibody, human IgG1, V domains shown)", "VH": "B1 VH with N44G, I48M, L70M, V72R", "VL": "B1 VL", "notes": "as for B1"}, "B4": {"name": "antibody 13.2 (antibody, human IgG1, kappa, V domains shown)", "VH": "B1 VH with S28T, N44G, I48M, N54S, L70M, V72R, S109Y", "VL": "EIVMTQSPATLSVSPGERATLSCRASQDVGTAVVWYQQKPGQAPRLLIDWASIRHTGIPARFSGSGSGTEFTLTISSLQSEDFAVYYCQQYSTYLYTFGGGTKVEIKR", "notes": "as for B2"}, "B5": {"name": "antibody 13.4 (antibody, human IgG1, kappa, V domains shown)", "VH": "B1 VH with S28T, N44G, I48M, N54S, L70M, V72R, S109Y", "VL": "B4 VL with Y94W, L95P, Y96L", "notes": "as for B2"}, "B6": {"name": "antibody 12.3 (antibody, human IgG1, kappa, V domains shown)", "VH": "B1 VH with S28T, N44G, I48M, N54S, L70M, V72R, S109Y", "VL": "B2 VL with D28G, V29I, G30S, T31S, A32Y, V33L, V34A, D49Y, Y91L, L95P", "notes": "as for B2"}, "B7": {"name": "antibody 13.6 (antibody, human IgG1, kappa, V domains shown)", "VH": "B1 VH with S28T, N44G, I48M, N54S, L70M, V72R, S109Y", "VL": "B4 VL with D28S, A32N, V33L, V34A, Y94W, L95P, Y96L", "notes": "as for B2"}, "B8": {"name": "antibody 12.1.3 (antibody, human IgG1, kappa, V domains shown)", "VH": "B1 VH with S28T, N44G, I48M, N54S, L70M, V72R, S109Y", "VL": "B2 VL with D28G, V29I, T31S", "notes": "as for B2"}, "B9": {"name": "antibody 13.5 (antibody, human IgG1, kappa, V domains shown)", "VH": "B1 VH with S28T, N44G, I48M, N54S, L70M, V72R, S109Y", "VL": "B4 VL with D28S, Y94W, L95P, Y96L", "notes": "as for B2"}, "B10": {"name": "antibody 12.2 (antibody, human IgG1, kappa, V domains shown)", "VH": "B1 VH with S28T, N44G, I48M, N54S, L70M, V72R, S109Y", "VL": "B2 VL with D28G, V29I, G30S, T31S, A32Y, V33L, V34A", "notes": "as for B2"}, "B11": {"name": "antibody 11.57 (antibody, human IgG1, kappa, V domains shown)", "VH": "B1 VH with S28T, N44G, I48M, N54S, T55S, L70M, V72R, S109Y", "VL": "B2 VL with T31S, T56S", "notes": "as for B2"}, "B12": {"name": "antibody 11.45 (antibody, human IgG1, kappa, V domains shown)", "VH": "B1 VH with S28T, N44G, I48M, N54S, T55S, L70M, V72R, S109Y", "VL": "B2 VL with R24K", "notes": "as for B2"}, "B13": {"name": "antibody 11.41.1 (antibody, human IgG1, kappa, V domains shown)", "VH": "B1 VH with N44G, I48M, N54S, L70M, V72R, S109V", "VL": "B2 VL with R24K", "notes": "as for B2"}, "B14": {"name": "antibody 11.27 (antibody, human IgG1, kappa, V domains shown)", "VH": "B1 VH with N44G, I48M, N54S, L70M, V72R", "VL": "B2 VL with R24K, T85D, Y87F", "notes": "as for B2"}, "B15": {"name": "antibody 11.44.1 (antibody, human IgG1, kappa, V domains shown)", "VH": "B1 VH with N44G, I48M, N54S, T55S, L70M, V72R, S109V", "VL": "B2 VL with R24K", "notes": "as for B2"}, "B16": {"name": "antibody 11.29 (antibody, human IgG1, kappa, V domains shown)", "VH": "B1 VH with N44G, I48M, N54S, T55S, L70M, V72R", "VL": "B2 VL with R24K, T85D, Y87F", "notes": "as for B2"}, "B17": {"name": "antibody 11.54 (antibody, human IgG1, kappa, V domains shown)", "VH": "B1 VH with N44G, I48M, N54S, T55S, L70M, V72R, S109Y", "VL": "B2 VL with R24K, T31S, T56S", "notes": "as for B2"}, "B18": {"name": "10A3D6hum8.2 (antibody, human IgG1, V domains shown)", "VH": "B1 VH with N54A, S109V", "VL": "B1 VL", "notes": "as for B1"}, "B19": {"name": "antibody 11.55 (antibody, human IgG1, kappa, V domains shown)", "VH": "B1 VH with N44G, I48M, N54S, T55S, L70M, V72R, S109Y", "VL": "B2 VL", "notes": "as for B2"}, "B20": {"name": "antibody 11.12 (antibody, human IgG1, kappa, V domains shown)", "VH": "B1 VH with N44G, I48M, L70M, V72R, S109Y", "VL": "B2 VL with R24K, T85D, Y87F", "notes": "as for B2"}}, "note": "Residue numbers refer to the chain shown, from its start."}
{"target": "T1, human KLRB1 expressed on CHO-hum-KLRB1 cells (human, UniProt Q12918 1-225)", "T1 sequence": "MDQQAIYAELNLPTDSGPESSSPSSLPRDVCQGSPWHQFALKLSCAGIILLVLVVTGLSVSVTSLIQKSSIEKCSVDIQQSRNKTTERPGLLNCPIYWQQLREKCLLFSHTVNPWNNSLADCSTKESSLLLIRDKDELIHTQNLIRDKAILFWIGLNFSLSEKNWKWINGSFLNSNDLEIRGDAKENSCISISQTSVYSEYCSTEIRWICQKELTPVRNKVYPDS", "test": "cell-based or functional assay"}
{"binder": "B1", "Span (fitted span of the ADCC dose-response curve, % target cell lysis of CHO-K1/human KLRB1 cells with PBMCs, E:T=25:1)": "74.2 % Target Cell Lysis (axis; the table prints no unit)"}
{"binder": "B2", "Span (fitted span of the ADCC dose-response curve, % target cell lysis of CHO-K1/human KLRB1 cells with PBMCs, E:T=25:1)": "80.8 % Target Cell Lysis (axis; the table prints no unit)"}
{"binder": "B3", "Span (fitted span of the ADCC dose-response curve, % target cell lysis of CHO-K1/human KLRB1 cells with PBMCs, E:T=25:1)": "75 % Target Cell Lysis (axis; the table prints no unit)"}
{"binder": "B4", "Span (fitted span of the ADCC dose-response curve, % target cell lysis of CHO-K1/human KLRB1 cells with PBMCs, E:T=25:1)": "77.8 % Target Cell Lysis (axis; the table prints no unit)"}
{"target": "T1, human KLRB1 expressed on CHO-hum-KLRB1 …", "test": "cell-based or functional assay", "remark": "another data set of the same source", "units": {"EC50 for ADCC (target cell lysis, LDH release)": "pM"}}
{"binder": "B1", "EC50 for ADCC (target cell lysis, LDH release)": 4.8}
{"binder": "B2", "EC50 for ADCC (target cell lysis, LDH release)": 5.4}
{"binder": "B3", "EC50 for ADCC (target cell lysis, LDH release)": 5.8}
{"binder": "B4", "EC50 for ADCC (target cell lysis, LDH release)": 8.3}
{"target": "T2, human KLRB1 extracellular domain (ECD), amino acids 67-225 of human KLRB1 protein (human, UniProt Q12918 67-225)", "T2 construct": "Soluble analyte in SPR; also called KLRB1 ECD; CD161 ECD", "T2 sequence": "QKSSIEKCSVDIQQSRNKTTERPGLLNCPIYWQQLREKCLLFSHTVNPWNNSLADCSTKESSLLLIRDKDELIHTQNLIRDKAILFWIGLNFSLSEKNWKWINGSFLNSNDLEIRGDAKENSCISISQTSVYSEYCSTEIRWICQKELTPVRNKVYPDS", "test": "SPR (Biacore 8K), antibody fixed on chip, human KLRB1 ECD as analyte; second experiment", "procedure": "(§1) Various humanized antibodies derived from humanized variants of antibody 10A3D6 with human IgG1-kappa were produced in CHO cells and then assayed for binding against human KLRB1 extracellular domain (ECD) via surface plasma resonance (SPR). Human KLRB1 extracellular domain was amino acids 67-225 from human KLRB1 protein (SEQ ID NO: 1). […] Antibody was fixed to the chip and analyte of human KLRB1 extracellular domain (ECD) was flowed over the surface at 30 ul/min, with contact time 120 seconds and dissociation time 360 seconds. The results are shown from two separate experiments in Tables 20 and 21.", "units": {"Kd": "pM", "koff": "s⁻¹", "kon": "M⁻¹ s⁻¹"}}
{"binder": "B5", "Kd": 14600, "koff": 0.00217, "kon": 149000}
{"binder": "B6", "Kd": 68800, "koff": 0.00135, "kon": 19700}
{"binder": "B7", "Kd": 44800, "koff": 0.00269, "kon": 60000}
{"binder": "B8", "Kd": 1750, "koff": 0.000248, "kon": 141000}
{"binder": "B9", "Kd": 20300, "koff": 0.00177, "kon": 87300}
{"binder": "B2", "Kd": 597, "koff": 0.000145, "kon": 243000}
{"binder": "B3", "Kd": 344, "koff": 0.000107, "kon": 310000}
{"binder": "B10", "Kd": 1540, "koff": 0.000236, "kon": 153000}
{"binder": "B11", "Kd": 2520, "koff": 0.000308, "kon": 122000}
{"binder": "B4", "Kd": 444, "koff": 0.000133, "kon": 300000}
{"target": "T2, human KLRB1 extracellular domain (ECD), …", "test": "SPR (Biacore 8K), antibody fixed on chip, human KLRB1 ECD as analyte", "procedure": "as §1", "units": {"Kd": "pM", "koff": "s⁻¹", "kon": "M⁻¹ s⁻¹"}}
{"binder": "B12", "Kd": 1260, "koff": 0.000227, "kon": 181000}
{"binder": "B1", "Kd": 263, "koff": "8.18e-05", "kon": 311000}
{"binder": "B13", "Kd": 414, "koff": 0.000167, "kon": 403000}
{"binder": "B14", "Kd": 314, "koff": 0.000123, "kon": 391000}
{"binder": "B15", "Kd": 1090, "koff": 0.000234, "kon": 215000}
{"binder": "B16", "Kd": 743, "koff": 0.000207, "kon": 278000}
{"binder": "B17", "Kd": 2240, "koff": 0.000315, "kon": 141000}
{"binder": "B18", "Kd": 512, "koff": 0.000171, "kon": 335000}
{"binder": "B3", "Kd": 279, "koff": 0.000135, "kon": 485000}
{"binder": "B19", "Kd": 1230, "koff": 0.00022, "kon": 180000}
{"binder": "B11", "Kd": 2080, "koff": 0.000308, "kon": 148000}
{"binder": "B20", "Kd": 275, "koff": 0.00012, "kon": 434000}
